Legend:
[1] = tested on: CD133 aptamer (hybrid RNA-DNA, 10-bp DNA GC stem) (DNA:RNA, aptamer, 2'-fluoro on all pyrimidines (C and U) of the RNA part; 5-methyl-dC (printed 5'-methyl-dC) in the DNA stem) CGCGCGCCGCUCCUACAUAGCGGCGCGCG; test: ITC; details: Mg2+ 2.5 mM, PBS (Na+, K+), 25 °C, DOX 100 µM injected, aptamer 2 µM or 100 µM (supplement)
[2] = tested on: CD133 aptamer (hybrid RNA-DNA, 10-bp DNA GC stem) (DNA:RNA, aptamer, 2'-fluoro on all pyrimidines (C and U) of the RNA part; 5-methyl-dC (printed 5'-methyl-dC) in the DNA stem) CGCGCGCCGCUCCUACAUAGCGGCGCGCG; test: DOX fluorescence quenching; details: DOX 10 µM, aptamer 1-10 µM, 30 min; >90% quenching at aptamer:DOX 0.27
[3] = biological target: T1, CD133 on Huh7 cells (human) (UniProt O43490); test: flow cytometry (cell binding); details: Huh7 cells, 37 C, Aptamer folded in PBS with 2.5 mM Mg2+ (85 C 5 min, RT, 37 C 15 min), binding to cells in PBS-based blocking buffer, 30 min, CD133-negative HEK293T cells …
T1 sequence: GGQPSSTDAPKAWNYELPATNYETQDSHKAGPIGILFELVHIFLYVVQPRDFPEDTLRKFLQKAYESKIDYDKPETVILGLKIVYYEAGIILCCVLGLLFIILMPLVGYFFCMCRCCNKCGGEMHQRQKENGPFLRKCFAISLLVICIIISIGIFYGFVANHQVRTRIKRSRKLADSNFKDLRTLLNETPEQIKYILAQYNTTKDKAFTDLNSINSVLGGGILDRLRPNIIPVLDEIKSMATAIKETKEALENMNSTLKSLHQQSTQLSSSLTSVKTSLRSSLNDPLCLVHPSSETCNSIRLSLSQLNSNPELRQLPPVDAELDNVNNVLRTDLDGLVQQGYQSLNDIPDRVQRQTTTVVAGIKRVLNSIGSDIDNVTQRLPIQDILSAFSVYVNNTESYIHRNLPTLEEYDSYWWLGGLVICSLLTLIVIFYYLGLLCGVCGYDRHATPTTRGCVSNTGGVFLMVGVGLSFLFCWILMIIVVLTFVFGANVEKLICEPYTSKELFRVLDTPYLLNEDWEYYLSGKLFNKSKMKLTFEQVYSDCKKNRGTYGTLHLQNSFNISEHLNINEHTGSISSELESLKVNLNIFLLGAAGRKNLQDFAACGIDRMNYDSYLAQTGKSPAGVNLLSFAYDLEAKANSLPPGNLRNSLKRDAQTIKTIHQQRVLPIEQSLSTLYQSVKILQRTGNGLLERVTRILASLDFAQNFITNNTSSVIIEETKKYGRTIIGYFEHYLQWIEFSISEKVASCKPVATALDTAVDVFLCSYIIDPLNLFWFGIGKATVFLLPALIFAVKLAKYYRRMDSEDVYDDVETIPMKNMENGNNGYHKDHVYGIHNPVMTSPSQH

[4] = biological target: T2, CD133 on PLC/PRF/5 cells (human) (UniProt O43490); test: flow cytometry (cell binding); details: PLC/PRF/5 cells, 37 C, Aptamer folded in PBS with 2.5 mM Mg2+ (85 C 5 min, RT, 37 C 15 min), binding to cells in PBS-based blocking buffer, 30 min, CD133-negative HEK293T cells …
T2 sequence: T1 sequence

[5] = apparent Kd, 2'-fluoro on all pyrimidines, 5-methyl-dC in stem, hexylamine cap at 3' end
[6] = 2'-O-methyl instead of 2'-fluoro on pyrimidines (C and U)

COc1cccc2c1C(=O)c1c(O)c3c(c(O)c1C2=O)C[C@@](O)(C(=O)CO)C[C@@H]3O[C@H]1C[C@H](N)[C@H](O)[C@H](C)O1 was tested, and the KD [1] was 0.634 µM and the binding [2] was “yes”.
“CGCGCGCCGCUCCUACAUAGCGGCGCGCG [CD133 aptamer (RNA loop, DNA GC stem)]” gave a Kd [3, 5] of 0.027 µM and a Kd [4, 5] of 0.011 µM.
Work on “CGCGCGCCGCUCCUACAUAGCGGCGCGCG [negative control CD133 aptamer (2'-OMe)]” yielded a Kd [3, 6] of over 1 µM and a Kd [4, 6] of over 1 µM.

From publication PMC9687680 (2022)
